Data published in US20210285949A1 (SPHINGOTEC, published 2021).
Read-outs that look alike come from different tables or passages of the source. No end group written: not given here.

Key:
[1] = target: T1, human recombinant adrenomedullin receptor (CRLR+RAMP3) (human); assay: cell-based or functional assay
[2] = target: T1, human recombinant adrenomedullin …; assay: cell-based or functional assay; remark: listed apart in the source

T1 sequence (Q16602 whole entry, chain 1 of 2): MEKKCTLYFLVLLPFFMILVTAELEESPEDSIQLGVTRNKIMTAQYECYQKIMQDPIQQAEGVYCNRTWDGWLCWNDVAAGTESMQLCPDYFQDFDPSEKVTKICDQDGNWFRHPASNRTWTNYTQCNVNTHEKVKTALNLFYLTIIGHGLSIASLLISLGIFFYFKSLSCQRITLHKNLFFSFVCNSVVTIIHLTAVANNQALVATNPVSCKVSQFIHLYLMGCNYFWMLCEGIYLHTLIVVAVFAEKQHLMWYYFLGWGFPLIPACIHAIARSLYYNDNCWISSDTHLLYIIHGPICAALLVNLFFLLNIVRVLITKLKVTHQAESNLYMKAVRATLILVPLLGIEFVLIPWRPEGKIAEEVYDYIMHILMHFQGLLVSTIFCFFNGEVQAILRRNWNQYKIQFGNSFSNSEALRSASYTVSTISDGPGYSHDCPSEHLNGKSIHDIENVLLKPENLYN
T1 sequence (O60896 whole entry, chain 2 of 2, further chain): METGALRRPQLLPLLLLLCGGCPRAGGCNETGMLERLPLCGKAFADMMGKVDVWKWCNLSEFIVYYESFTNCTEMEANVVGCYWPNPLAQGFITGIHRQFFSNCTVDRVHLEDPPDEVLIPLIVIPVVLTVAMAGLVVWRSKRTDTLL

| EC50 (read off the curve); cAMP HTRF assay, CHO-K1 cells with human CRLR+RAMP3 [1] [nM] | EC50 (read off the curve); cAMP HTRF assay, CHO-K1 cells with human CRLR+RAMP3 [2] [nM] | Binder |
| --- | --- | --- |
| ~0.08 | – | YRQSMNQGSRSNGCRFGTCTFQKLAHQIYQLTDKDKDGMAPRNKISPQGY-NH2 (ends and bridges not checked) [Mouse ADM 1-50] |
| – | ~1 | mature human Adrenomedullin (Human ADM 1-52) (ends and bridges not checked) peptide: YRQSMNNFQGLRSFGCRFGTCTVQKLAHQIYQFTDKDKDNVAPRSKISPQGY-NH2 |
